Measured values published in patent US20220204643A1 (published 2022).
Blank lines part the entries; values can stand above or below the binder they belong to.

Tests used:
[1] = molecular target: T1, cyclin dependent kinase 2 associated protein 2, transcript variant 1 (human, UniProt O75956 1-126)
T1 construct: also called CDK2AP2
T1 sequence: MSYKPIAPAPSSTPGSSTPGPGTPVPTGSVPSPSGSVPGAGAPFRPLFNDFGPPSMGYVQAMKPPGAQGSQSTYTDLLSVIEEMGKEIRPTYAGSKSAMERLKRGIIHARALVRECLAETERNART

[2] = molecular target: T2, NFKB inhibitor beta, transcript variant 1 (human, UniProt Q15653 1-356)
T2 construct: also called NFKBIB
T2 sequence: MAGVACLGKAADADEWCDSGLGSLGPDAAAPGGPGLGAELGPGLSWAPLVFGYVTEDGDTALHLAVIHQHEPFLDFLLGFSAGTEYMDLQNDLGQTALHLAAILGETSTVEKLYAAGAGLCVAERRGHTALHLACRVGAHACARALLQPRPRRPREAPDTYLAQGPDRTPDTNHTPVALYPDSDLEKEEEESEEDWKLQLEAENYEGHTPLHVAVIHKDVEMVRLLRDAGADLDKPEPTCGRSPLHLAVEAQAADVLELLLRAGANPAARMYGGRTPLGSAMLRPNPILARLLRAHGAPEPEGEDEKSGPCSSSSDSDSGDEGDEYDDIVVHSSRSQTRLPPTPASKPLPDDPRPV

[3] = molecular target: BCL2 apoptosis regulator, transcript variant alpha (human, UniProt P10415 1-239)
Sequence of BCL2 apoptosis regulator, transcript variant alpha (P10415 whole entry, change not shown): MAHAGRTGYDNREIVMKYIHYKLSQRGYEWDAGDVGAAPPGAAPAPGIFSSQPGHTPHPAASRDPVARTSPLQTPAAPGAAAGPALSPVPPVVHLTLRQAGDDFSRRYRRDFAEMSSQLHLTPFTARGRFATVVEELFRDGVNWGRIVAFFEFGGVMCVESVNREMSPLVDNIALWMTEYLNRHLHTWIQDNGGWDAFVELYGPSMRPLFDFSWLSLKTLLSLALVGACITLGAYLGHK

[4] = molecular target: T3, Transforming growth factor beta 3 (human, UniProt P10600 24-412)
T3 construct: also called TGFB3
T3 sequence: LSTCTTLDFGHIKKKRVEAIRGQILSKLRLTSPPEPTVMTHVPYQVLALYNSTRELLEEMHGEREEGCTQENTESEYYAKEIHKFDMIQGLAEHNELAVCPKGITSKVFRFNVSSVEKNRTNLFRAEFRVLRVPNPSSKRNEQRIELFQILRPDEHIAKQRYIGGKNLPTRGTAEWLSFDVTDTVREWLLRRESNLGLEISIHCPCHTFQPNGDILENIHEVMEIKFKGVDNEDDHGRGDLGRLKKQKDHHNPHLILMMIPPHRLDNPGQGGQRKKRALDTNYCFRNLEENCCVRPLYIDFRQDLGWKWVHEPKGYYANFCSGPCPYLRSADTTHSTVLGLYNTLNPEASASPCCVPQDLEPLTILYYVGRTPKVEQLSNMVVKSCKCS

[5] = molecular target: T4, transforming growth factor beta induced (human, UniProt Q15582 24-683, limits assumed)
T4 construct: also called TGFBI
T4 sequence: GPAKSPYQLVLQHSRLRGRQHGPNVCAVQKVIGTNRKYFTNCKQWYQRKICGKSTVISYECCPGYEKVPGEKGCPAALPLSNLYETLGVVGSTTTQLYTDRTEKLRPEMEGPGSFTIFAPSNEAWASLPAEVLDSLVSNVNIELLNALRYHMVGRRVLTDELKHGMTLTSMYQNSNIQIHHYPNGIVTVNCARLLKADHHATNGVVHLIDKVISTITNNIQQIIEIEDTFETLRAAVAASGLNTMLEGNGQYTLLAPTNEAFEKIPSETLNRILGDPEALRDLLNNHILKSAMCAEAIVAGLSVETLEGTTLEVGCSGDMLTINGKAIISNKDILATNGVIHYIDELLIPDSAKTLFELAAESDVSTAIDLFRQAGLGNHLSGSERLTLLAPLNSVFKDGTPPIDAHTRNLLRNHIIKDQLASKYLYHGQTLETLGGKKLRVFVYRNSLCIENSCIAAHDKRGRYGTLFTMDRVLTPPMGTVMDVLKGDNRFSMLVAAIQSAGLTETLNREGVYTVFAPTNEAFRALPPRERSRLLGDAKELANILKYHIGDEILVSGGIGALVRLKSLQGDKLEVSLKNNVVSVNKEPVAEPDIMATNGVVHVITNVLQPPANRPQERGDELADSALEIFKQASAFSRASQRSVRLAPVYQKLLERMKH

[6] = molecular target: T5, HAUS augmin like complex subunit 1, transcript variant 1 (human, UniProt Q96CS2 1-278)
T5 construct: also called HAUS1
T5 sequence: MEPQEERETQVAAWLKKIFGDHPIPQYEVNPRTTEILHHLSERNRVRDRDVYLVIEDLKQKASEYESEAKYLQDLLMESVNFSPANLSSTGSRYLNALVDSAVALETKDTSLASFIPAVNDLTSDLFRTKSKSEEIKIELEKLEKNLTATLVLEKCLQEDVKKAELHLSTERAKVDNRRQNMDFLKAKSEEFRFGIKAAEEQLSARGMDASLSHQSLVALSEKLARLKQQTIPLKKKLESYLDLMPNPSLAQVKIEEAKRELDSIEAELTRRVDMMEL

[7] = molecular target: T6, BCL2 associated athanogene 2 (human, UniProt O95816 2-211)
T6 construct: also called BAG2
T6 sequence (O95816 2-211 limits assumed): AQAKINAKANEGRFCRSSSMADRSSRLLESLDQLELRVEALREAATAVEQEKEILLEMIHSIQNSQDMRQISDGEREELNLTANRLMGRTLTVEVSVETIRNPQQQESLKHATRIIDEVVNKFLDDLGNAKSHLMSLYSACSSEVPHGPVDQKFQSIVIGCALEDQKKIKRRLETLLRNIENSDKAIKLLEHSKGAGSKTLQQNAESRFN

[8] = molecular target: T7, heat shock protein family A (Hsp70) member 2 (human, UniProt P54652 1-639)
T7 construct: also called HSPA2
T7 sequence (P54652 whole entry): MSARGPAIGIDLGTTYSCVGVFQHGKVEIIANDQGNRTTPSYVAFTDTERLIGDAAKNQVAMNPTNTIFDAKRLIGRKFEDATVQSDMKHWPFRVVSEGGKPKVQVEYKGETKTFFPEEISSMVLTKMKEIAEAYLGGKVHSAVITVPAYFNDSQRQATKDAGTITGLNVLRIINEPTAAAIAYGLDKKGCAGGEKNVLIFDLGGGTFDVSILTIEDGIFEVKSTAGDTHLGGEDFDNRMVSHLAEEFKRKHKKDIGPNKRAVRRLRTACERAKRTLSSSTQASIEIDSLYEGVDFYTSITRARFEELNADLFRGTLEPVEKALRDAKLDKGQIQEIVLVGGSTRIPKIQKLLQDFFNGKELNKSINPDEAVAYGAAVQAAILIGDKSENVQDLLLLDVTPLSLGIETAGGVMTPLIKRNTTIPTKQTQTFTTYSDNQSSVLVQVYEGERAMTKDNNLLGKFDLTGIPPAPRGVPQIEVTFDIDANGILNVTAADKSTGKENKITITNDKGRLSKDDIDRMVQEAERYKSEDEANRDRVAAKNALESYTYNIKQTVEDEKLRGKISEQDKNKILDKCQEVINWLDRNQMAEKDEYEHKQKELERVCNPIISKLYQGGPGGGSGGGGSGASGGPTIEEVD

[9] = molecular target: T8, HSPA (Hsp70) binding protein 1, transcript variant 2 (human, UniProt Q9NZL4 1-359)
T8 construct: also called HSPBP1
T8 sequence: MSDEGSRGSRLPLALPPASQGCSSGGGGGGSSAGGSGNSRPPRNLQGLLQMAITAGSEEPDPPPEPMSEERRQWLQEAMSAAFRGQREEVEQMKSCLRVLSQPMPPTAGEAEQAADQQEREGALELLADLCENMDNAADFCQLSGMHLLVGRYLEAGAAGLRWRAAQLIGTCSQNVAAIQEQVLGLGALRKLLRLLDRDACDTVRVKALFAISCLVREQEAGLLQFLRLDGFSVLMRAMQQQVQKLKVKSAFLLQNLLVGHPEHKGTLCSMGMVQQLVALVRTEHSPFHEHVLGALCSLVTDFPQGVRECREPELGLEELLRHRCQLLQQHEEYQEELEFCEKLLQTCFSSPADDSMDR

[10] = molecular target: T9, C-X-C motif chemokine receptor 4, transcript variant 2 (human, UniProt P61073 1-352)
T9 construct: also called CXCR4
T9 sequence (P61073 whole entry, change not shown): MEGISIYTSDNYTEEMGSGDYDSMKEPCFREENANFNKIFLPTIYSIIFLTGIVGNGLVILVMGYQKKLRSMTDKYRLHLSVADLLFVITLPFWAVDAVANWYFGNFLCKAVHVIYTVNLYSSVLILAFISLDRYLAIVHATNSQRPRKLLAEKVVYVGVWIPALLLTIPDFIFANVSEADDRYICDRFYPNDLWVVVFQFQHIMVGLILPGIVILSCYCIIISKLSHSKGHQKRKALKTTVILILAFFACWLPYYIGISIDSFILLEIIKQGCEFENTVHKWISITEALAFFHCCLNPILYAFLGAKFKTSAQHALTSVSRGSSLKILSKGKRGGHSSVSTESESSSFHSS

[11] = molecular target: T10, Long intergenic non-protein coding rna 242 (human, UniProt Q5T6M2 1-205)
T10 construct: also called LINC00242
T10 chain: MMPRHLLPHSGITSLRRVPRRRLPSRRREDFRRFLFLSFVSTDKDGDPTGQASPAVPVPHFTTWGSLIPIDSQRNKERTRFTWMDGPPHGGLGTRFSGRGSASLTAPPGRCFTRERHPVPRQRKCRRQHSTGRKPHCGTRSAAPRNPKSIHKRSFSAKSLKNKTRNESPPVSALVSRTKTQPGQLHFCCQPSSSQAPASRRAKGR

[12] = molecular target: T11, calcium and integrin binding 1, transcript variant b (human, UniProt Q99828 2-191)
T11 construct: also called CIB1
T11 sequence: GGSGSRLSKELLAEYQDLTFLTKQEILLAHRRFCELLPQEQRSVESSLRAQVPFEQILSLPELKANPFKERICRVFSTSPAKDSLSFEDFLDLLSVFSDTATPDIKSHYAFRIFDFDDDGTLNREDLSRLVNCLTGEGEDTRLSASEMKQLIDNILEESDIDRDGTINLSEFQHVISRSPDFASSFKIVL

chymotrypsinogen B2 = molecular target: T12, chymotrypsinogen B2 (human, UniProt Q6GPI1 19-263, limits assumed)
T12 construct: also called CTRB2
T12 sequence (Q6GPI1 19-263 limits assumed): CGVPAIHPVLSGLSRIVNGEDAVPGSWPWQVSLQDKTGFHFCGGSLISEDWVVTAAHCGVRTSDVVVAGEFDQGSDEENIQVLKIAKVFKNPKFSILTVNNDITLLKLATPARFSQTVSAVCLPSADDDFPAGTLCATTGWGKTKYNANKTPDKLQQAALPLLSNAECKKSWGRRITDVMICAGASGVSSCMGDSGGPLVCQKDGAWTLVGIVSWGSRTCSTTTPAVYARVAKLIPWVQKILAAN

B1: TSTO1005 (antibody, V domains shown)
VH: EVQLVESGGGVVQPGGSLRLSCAASGFTFEDFGMHWVRQAPGKGLEWVAFTRFDGSEKYYVDSVKGRFTVSRDNSKNTLFLHMNSLRPEDTAVYYCAKTRSYSSADTTRPNAPGYWGQGTLVTVSS
VL: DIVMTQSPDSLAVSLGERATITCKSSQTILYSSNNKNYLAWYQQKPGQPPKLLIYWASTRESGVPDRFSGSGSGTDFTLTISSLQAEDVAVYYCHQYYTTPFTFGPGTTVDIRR
binding result [1]: binds | binding result [2]: binds

B4: TSTO1008 (antibody, V domains shown)
VH: AVQLVQSGAEVKKPGESLRISCKGSGYSFSTYWIIWVRQMPGKGLEWIGRFDPSDSYNVNSPSFQGHVTISADTSINTAYLQWSSLKASDSAMYYCARRSDKAVPGTFDQWGQGTLVTVSS
VL: RSVLTQPPSVSAAPGQKVIISCSGSSSNIGNNYVSWYQQFLGTAPKLLIYDTDKRPSGIPDRFSGSKSGTSATLGITGLQTGDEAHYYCATWDSSLRAGPVVFGGGTKLTVLG
binding result [5]: binds

B6: TSAR1005 (antibody, V domains shown)
VH: QVQLVESGGGVVQPGRSLRLSCVASGFTFSNYAMHWVRQAPGKGLEWVAVIWYDGSNEYYRDSVEGRFTISRDSSKNTLYLLVNSLRAEDTAVYYCARGNGPKSGKYSDFDYWGQGTLVTVSS
VL: DVVMTQSPLSLPVTLGQAASISCRSSQSLVYSDGNTYLNWFQQRPGQSPRRLIYKVSNRESGVPDRFSGSGSGTDFTLQISRVEAEDVGIYYCMQGAHWPPITFGQGTRLEIKR
binding result [7]: binds | binding result [8]: binds | binding result [9]: binds

B7: TSAR1006 (antibody, V domains shown)
VH: QVQLVQSGTEVKKPGASVKVSCKASGYRFTSNGISWVRQAPGQGLQWMGWISTDSGNTNYAQSFQGRVTLTRDTSTNTAYLELRRLRSEDTAVYYCARDKSWYFDYWGQGTLVSVSS
VL: SYELTQPPSVSVSPGQTARITCSGDALPKKYVFWYQQRSGQAPVLVIYEDSKRPSGIPDRFSGSSSGTLATLTISGAQVEDEADYYCYSTDTIGNWVFGGGTRLTVL
binding result [10]: binds | binding result [11]: binds

B8: TSTO1001 (antibody, V domains shown)
VH: VVQLLESGGGLVHPGGSLRISCAASEFTFSAYAMTWVRQAPGKGLEWVSAISGSGGRTYYADSLKGRFTISRDNSKHTLYLLMNSLRVEDTAVYYCASRYRSPSGAFDIWGQGTLVTVSS
VL: EIVMTQSPATLSVSQGERATLSCRASQSVGSDLAWYQQKPGQAPRLLIYDASARATDIPARFSGSGSETEFTLTISSLQSEDFAVYYCQHYSDWRALTFGGGTKVEIKR
binding result [12]: binds

Second part, the binder after the results:

binding result [3]: binds
B2: TSTO1010 (antibody, V domains shown)
VH: EVQLVESGGGLVKPRGSLRLSCAASGFTFSAYGMNWVRQAPGKGLEWVSSISGDSRDIYYGASMKGRFTISRDNAKSSLYLQMNSLRAEDTAVYYCARGEGGELWAFDYWGLGVLVTVSS
VL: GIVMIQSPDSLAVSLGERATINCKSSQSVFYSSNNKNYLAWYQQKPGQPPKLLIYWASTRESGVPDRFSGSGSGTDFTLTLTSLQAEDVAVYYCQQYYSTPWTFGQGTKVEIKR

binding result [4]: binds
B3: TSTO1003 (antibody, V domains shown)
VH: QVQLKQSGGGVVQPGRSLTLSCVASGLTFSDYGMHWVRQAPGKGLEWVAVIWHDGSKTNYADSVKGRIIISRDNSKSTVYLQMNRLRGEDTAVYYCATSHGGLVPGGENYWGQGTLVTVSS
VL: SDELTQPPSVSVSPGQTARITCSGDALAKEYAYWYQQKSGQAPVLVISKDTERPSGIPARFSGSSSGTTVTLTISGVQSDDEADYYCQSADSSLTYWLFGGGTKLTVLR

binding result [6]: binds
B5: TSTO1002 (antibody, V domains shown)
VH: EVQLVESGGGLVKPGGSLRLSCAASGFTFSNAWMNWVRQTPGKGLEWVGRIKTKTDGGTTDYAEPVKGRFTISRDDSKNTLYLQMNSLKTEDTAVYYCTRGAVADYWGQGTQVTVSS
VL: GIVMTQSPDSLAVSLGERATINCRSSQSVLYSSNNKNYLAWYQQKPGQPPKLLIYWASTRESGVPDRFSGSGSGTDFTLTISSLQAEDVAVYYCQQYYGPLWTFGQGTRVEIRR

binding result (chymotrypsinogen B2): binds
B9: TSTO1004 (antibody, V domains shown)
VH: QVQLVQSGSELKKPGASVKVSCTSSGYVFTSFGVSWVRQVPGQGPEWMGWISPYTRQTKYAQSLQGRITLTADTSTNTTYMELRSLRSDDTAMYYCVREEFGVVRGPNPFDVWGQGTMVTVSS
VL: DIQMTQAPSTLSASVGDRVSITCRASQNIRDFLAWYQQKPGRAPDLLIYRASTLEKGVSARFSGSGSGTEFTLTITGLQPDDFATYYCQQYSDYSTFGGGTRVEIK
